± gives the standard deviation.

Our source for the protein stability index values is the supplement of paper PMC10567573.

This data set is described as follows: protein stability index of a GFP-peptide fusion (GPS, HEK-293T) (PSI 1-6); higher = more stable.
[1] abbreviates: treatment: DMSO, c terminus: a fixed tail appended.
The mark [2] stands for this setting: treatment: MLN4924 1 uM, 8 h, c terminus: a fixed tail appended.
The mark [3] stands for this setting: treatment: DMSO, c terminus: native.
Setting [4] is: treatment: MLN4924 1 uM, 8 h, c terminus: native.
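Further: 24-mer peptide tiles fused after GFP, lentivirally expressed, FACS-sorted into six equal bins by GFP/DsRed ratio, decoded by Illumina sequencing, PSI is the read-weighted mean bin number.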

For the sequence PQDQAGPGGAPRVASRNLFPKDTL [CLPTM1], the protein stability index is 4.41 ± 0.36 under setting [1] and 4.61 ± 0.28 under setting [2].
VTETEETQEKKAESKEPIEEEPTG [SDE2] returned a protein stability index under setting [1] of 5.68 ± 0.19 and a protein stability index under setting [2] of 5.85 ± 0.11.
For DLVLHTNYTATVRGLRGPNLTSPA [TNXB], the protein stability index was found to be 2.79 ± 0.31 under setting [1] and 2.71 ± 0.32 under setting [2].
For DNIKYQPKGGQVQIVTKKIDLSHV [MAP2] the same measures were 3.34 ± 0.38 and 3.47 ± 0.3.
Regarding HTSTARLLLHRGAGKEAMTSDGYT [RIPK4], the protein stability index amounted to 3.61 ± 0.22 under setting [1] and 3.75 ± 0.29 under setting [2].
For NPWNWGKLAEAYLNLGPALSAALA [C8orf76] the same measures were 2.57 ± 0.26 and 2.44 ± 0.15.
QLPPVVPVSKPGALRRSLSRSMSQ [TCAP]: the protein stability index by setting is: under setting [1], 3.97 ± 0.13; under setting [2], 3.96 ± 0.13.
On to VSFLRSGTKLIFRRRPRQKEAGLS [C2CD2L], for which the protein stability index by setting is: under setting [1], 2.75 ± 0.74; under setting [2], 3.1 ± 0.24.
On to FSSYNKQDNNCHFDAALVSFINFF [SLC6A17], for which the protein stability index reads like this: under setting [1], 2.81 ± 0.39; under setting [2], 2.64 ± 0.41.
In turn, KQWGPLEREPVRGQCLDSTDQLEF [RTN2] showed a protein stability index under setting [1] of 4.45 ± 0.35 and a protein stability index under setting [2] of 4.71 ± 0.2.
As to TPNSAGGPGAHILRRKSPASGQGP [ADAMTS4], the protein stability index is, setting by setting: under setting [1], 4.55 ± 0.15; under setting [2], 4.93 ± 0.28.
On the same counts, the results for INTLITSGADTAKCGIHSMFPLHL [ANKRD44] are 1.8 ± 0.21 and 2.64 ± 0.84.
In the case of GGGGQGDGGSSLASGSTQRQPPPP [FBXO28], the protein stability index under setting [1] was 5.38 ± 0.19 and the protein stability index under setting [2] came to 5.27 ± 0.29.
ACGGHVELAALLIERGASLEEVND [ANKRD17]: the protein stability index by setting is: under setting [1], 3.91 ± 0.29; under setting [2], 3.73 ± 0.22.
On to QGLFFDMEAYLPKKNGLYLSLVLG [TMEM120A], for which the protein stability index is 2.67 ± 0.42 under setting [1] and 2.62 ± 0.23 under setting [2].
SSAASLIDFLRVVRNQQSLAVSNM [PTPN9]: the protein stability index is, setting by setting: under setting [1], 2.26 ± 0.43; under setting [2], 2.1 ± 0.26.
On the same counts, the results for FYIGKYFGGVLEYFMIQALNQKTS [RHOBTB3] are 2.96 ± 0.33 and 3.31 ± 0.58.
Turning to NAFQETWYWHGDVNSNKVVMSGVK [LOXL2], the protein stability index was determined as 2.75 ± 0.31 under setting [1] and 2.84 ± 0.48 under setting [2].
Sequence LAESGGSPDVLQMLKIHRSDPQLI [TRADD] registered a protein stability index under setting [1] of 3.16 ± 0.43 and a protein stability index under setting [2] of 3.36 ± 0.24.
On the same counts, the results for PLLKDEGFAVKALWGRTQEEAEEL [GFOD1] are 5 ± 0.62 and 4.915 ± 0.038.
Consider KKDNHALVRETDELRRNHCFQDFK [ELOA2], for which the protein stability index was determined as 4.11 ± 0.31 under setting [1] and 4.03 ± 0.3 under setting [2].
On to NLLEKFFEMKKGQCKDALEIYKRF [SNAP91], for which the protein stability index by setting is: under setting [1], 2.41 ± 0.46; under setting [2], 2.69 ± 0.8.
On the same counts, the results for AIPIEIKSIDDTSNFDDFPESDIL [STK38L] are 4.67 ± 0.17 and 4.84 ± 0.11.
For the sequence LKLLDELPIAKVMKDYLKHKFDDI [ASB7], the protein stability index was determined as 2.04 ± 0.3 under setting [1] and 2.14 ± 0.28 under setting [2].
Take EFARKGSCFLINTADRIIRVYDGR [RBBP5]: the protein stability index is 2.23 ± 0.67 under setting [1] and 2.24 ± 0.26 under setting [2].
TTEVNAWLVHRDPEGSVSGSQPNS [NFE2L1] registered a protein stability index under setting [1] of 4.33 ± 0.17 and a protein stability index under setting [2] of 4.64 ± 0.35.
As for STTALGDKQRKANESKGTRESWDS [ELOA2], the protein stability index runs as follows: under setting [1], 4.06 ± 0.49; under setting [2], 4.34 ± 0.72.
Take LDQLLHYRKKSAEFPDFYDSEEPV [CHGB]: the protein stability index reads like this: under setting [1], 3.96 ± 0.34; under setting [2], 4 ± 0.15.
With GFSCNQGRYPLIQTLRQELSLPYL [CHIT1], the protein stability index under setting [1] worked out at 2.16 ± 0.33 and the protein stability index under setting [2] is 2.4 ± 0.24.
VEKLLREEAEGARWTSYRFSRVCR [TRIM35] registered a protein stability index under setting [1] of 2.89 ± 0.28 and a protein stability index under setting [2] of 3.22 ± 0.2.
Consider AETQPQNPPAQPAPNAWQVIKGVL [CLPTM1], for which the protein stability index runs as follows: under setting [1], 3.55 ± 0.15; under setting [2], 3.78 ± 0.25.
As to AFHGAPSHLPTRSPSFPEAPDSGR [TBX6], the protein stability index runs as follows: under setting [1], 4.32 ± 0.26; under setting [2], 4.37 ± 0.38.
Take HSFELDEKALASILLQDHIRDLDV [ATL3]: the protein stability index was found to be 3.26 ± 0.33 under setting [1] and 3.26 ± 0.29 under setting [2].
For IMNIIDIVSILPYFITLGTDLAQQ [KCNA4], the protein stability index by setting is: under setting [1], 3.37 ± 0.44; under setting [2], 2.95 ± 0.49.
For TDFFKNIMNFIDIVAIIPYFITLG [KCNA1] the same measures were 3.22 ± 0.62 and 3.6 ± 0.2.
CVQCGKSYSQSSNLFRHQRRHNAE [ZNF24] gave a protein stability index under setting [1] of 4 ± 0.16 and a protein stability index under setting [2] of 4.42 ± 0.42.
TPTPVAAALDACSGNDPFAPSEGS [SNAP91]: the protein stability index runs as follows: under setting [1], 5.29 ± 0.32; under setting [2], 5.47 ± 0.24.
On the same counts, the results for TQLTQNAVSCPYLPSNLLKKFRSS [KCNA4] are 3.32 ± 0.37 and 3.39 ± 0.2.
For SLVQLQASHQQQVLPPRQPSALVP [MYBL2] the same measures were 3.54 ± 0.23 and 3.63 ± 0.28.
As for RVLRQPRPALAQQAQGARAGGSAR [GMCL1], the protein stability index is, setting by setting: under setting [1], 5.03 ± 0.23; under setting [2], 4.93 ± 0.19.
Regarding RERIERVRRIHIKRPDDRAHLHQ [KCTD10], the protein stability index by setting is: under setting [3], 4.2 ± 0.36; under setting [4], 4.51 ± 0.35.
In the case of DFHYCDREHVCRKDQRNPPSLGRV [RBMY1A1], the protein stability index runs as follows: under setting [1], 3.27 ± 0.27; under setting [2], 3.8 ± 0.4.
Consider EHIYDLRSLENYHFVDEHGKDQGI [CLINT1], for which the protein stability index runs as follows: under setting [1], 4.1 ± 0.25; under setting [2], 4.08 ± 0.1.
With NPFKERICRVFSTSPAKDSLSFED [CIB1], the protein stability index is, setting by setting: under setting [1], 2.77 ± 0.21; under setting [2], 2.75 ± 0.2.
Take SVSLQINCQSVAQMNLLQKYSLLK [DLC1]: the protein stability index reads like this: under setting [1], 2.2 ± 0.12; under setting [2], 2.13 ± 0.22.
For SYRIHNGQKLVVPGLLGSMALSNH [FBXO3] the same measures were 2.35 ± 0.27 and 2.43 ± 0.31.
As for EKEVLRRERAVEWRERAVEKRERA [ZBED2], the protein stability index reads like this: under setting [1], 4.93 ± 0.44; under setting [2], 4.95 ± 0.27.
On to LVCTFSSQVCRVAYEIMQTLHPDA [FUT8], for which the protein stability index is, setting by setting: under setting [1], 2.95 ± 0.12; under setting [2], 3.22 ± 0.55.
For the sequence KVNLCGHWYYSKACCRSCRPPHS [ADAMTSL2], the protein stability index is 2.86 ± 0.57 under setting [3] and 3.17 ± 0.54 under setting [4].
Take SQVRALDRFQVPTTEVNAWLVHRD [NFE2L1]: the protein stability index reads like this: under setting [1], 3.37 ± 0.47; under setting [2], 3.33 ± 0.48.
On the same counts, the results for LAEGVSASLHTLLGDPCPMLESPG [HDAC6] are 4 ± 0.28 and 4.17 ± 0.29.
With EENALWEEERAFWMENNGHVAGEQ [CCDC70], the protein stability index is, setting by setting: under setting [1], 4.99 ± 0.22; under setting [2], 5.29 ± 0.13.
With QEKKRKFLESTDSFNNELKRLCGL [SMARCE1], the protein stability index under setting [1] is 2.87 ± 0.41 and the protein stability index under setting [2] turned out to be 3.14 ± 0.69.
For VMSALWVSGLDSSYLREQMLNEPL [GAN], the protein stability index runs as follows: under setting [1], 2.83 ± 0.24; under setting [2], 2.29 ± 0.54.
In the case of TKSHSFRAMCQNGKLVYPSCEEK [CFHR2], the protein stability index came to 3.813 ± 0.01 under setting [3] and 4.09 ± 0.12 under setting [4].
For the sequence GSNEYTEGPSVVKRPAPRTAPRQE [SPRY1], the protein stability index under setting [1] was determined as 4.9 ± 0.28 and the protein stability index under setting [2] is 5.3 ± 0.17.
On to EDVPLAAKLVDLPCVIESLRTLDK [TAF7L], for which the protein stability index by setting is: under setting [1], 3.64 ± 0.29; under setting [2], 3.48 ± 0.21.
For VAVLKGEQEKEAQHKDQTAALPLA [MAP2], the protein stability index was determined as 5.28 ± 0.17 under setting [1] and 5.09 ± 0.27 under setting [2].
Turning to SEALASTRILKHSPESSRGQCGEN [GLIPR2], the protein stability index was found to be 5.29 ± 0.21 under setting [1] and 4.93 ± 0.25 under setting [2].
For KAMFSGRVEVLTDAGGWVLIDRSG [KCTD13], the protein stability index under setting [1] was found to be 2.19 ± 0.21 and the protein stability index under setting [2] came to 2.48 ± 0.47.
Consider AKKGRRNQSVEPKKEEPEPETEAV [ZMYND11], for which the protein stability index by setting is: under setting [1], 5.53 ± 0.28; under setting [2], 5.66 ± 0.21.
Sequence ELAYLRKNHEEEMLALRGQTGGDV [KRT16] registered a protein stability index under setting [1] of 4.26 ± 0.28 and a protein stability index under setting [2] of 4.41 ± 0.17.
For the sequence QTESELQELSEVLELLSAPELKSL [FAN1], the protein stability index runs as follows: under setting [1], 4.1 ± 0.19; under setting [2], 4.11 ± 0.11.
Turning to LALFPLLPKVLQKYWCVTATRVAP [ZBED1], the protein stability index is, setting by setting: under setting [1], 2.98 ± 0.3; under setting [2], 2.94 ± 0.94.
As for QLRLLQAPLQADLTEQVWKVQDAL [SCARA5], the protein stability index under setting [1] came out at 3.15 ± 0.28 and the protein stability index under setting [2] stood at 3.12 ± 0.3.
Turning to SVGCIFAEMFRRKPLFCGNSEADQ [CDK4], the protein stability index is, setting by setting: under setting [1], 2.37 ± 0.2; under setting [2], 2.58 ± 0.23.
For HLYQSSARRYAGPLHHQTQRFRLD [ELAVL3], the protein stability index was determined as 2.99 ± 0.18 under setting [1] and 3.05 ± 0.32 under setting [2].
On the same counts, the results for KNTSEQDQPMGGWEMIRKIGDTSV [LMNB1] are 4.27 ± 0.18 and 4.43 ± 0.22.
On the same counts, the results for SELRTKVQEQQKQLQDQDQKLLEQ [FBXO28] are 5.5 ± 0.19 and 5.481 ± 0.034.
In turn, FDTLATVGTGTFGRVHLVKEKTAK [PRKX] yielded a protein stability index under setting [1] of 4.66 ± 0.22 and a protein stability index under setting [2] of 4.54 ± 0.41.
Turning to SWNSQSSLLDVQRVPSFESFEDDC [ETS2], the protein stability index was determined as 4.84 ± 0.17 under setting [1] and 4.67 ± 0.13 under setting [2].
Take TQGQEKMMMMGPKEEEQSCEYETR [ZNF232]: the protein stability index under setting [1] is 5.42 ± 0.38 and the protein stability index under setting [2] was found to be 5.59 ± 0.16.
